The target in experiment [1] is T1, Human CD94 (human, UniProt Q13241 1-179).
T1 construct: also called hCD94
T1 sequence: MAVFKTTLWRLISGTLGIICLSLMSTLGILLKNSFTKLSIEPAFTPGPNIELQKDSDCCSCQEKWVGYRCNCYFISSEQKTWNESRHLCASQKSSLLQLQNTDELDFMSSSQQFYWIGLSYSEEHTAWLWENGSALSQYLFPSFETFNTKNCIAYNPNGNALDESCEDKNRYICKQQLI
The experiment in a line: flow, Jurkat, 100 nM Ab.

Experiment [2] addresses T2, Human KLRG1 (human, UniProt Q96E93 1-195).
T2 construct: also called hKLRG1
T2 sequence: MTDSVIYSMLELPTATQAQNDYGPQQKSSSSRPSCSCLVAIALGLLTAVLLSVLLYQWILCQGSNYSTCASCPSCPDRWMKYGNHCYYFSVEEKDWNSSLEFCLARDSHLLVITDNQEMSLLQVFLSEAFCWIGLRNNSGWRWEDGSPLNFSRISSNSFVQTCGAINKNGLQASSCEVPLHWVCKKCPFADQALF
The experiment in a line: flow, Jurkat, 100 nM Ab.

Experiment [3] addresses T3, Human KLRF2 (human, UniProt D3W0D1 1-207).
T3 construct: also called hKLRF2
T3 sequence: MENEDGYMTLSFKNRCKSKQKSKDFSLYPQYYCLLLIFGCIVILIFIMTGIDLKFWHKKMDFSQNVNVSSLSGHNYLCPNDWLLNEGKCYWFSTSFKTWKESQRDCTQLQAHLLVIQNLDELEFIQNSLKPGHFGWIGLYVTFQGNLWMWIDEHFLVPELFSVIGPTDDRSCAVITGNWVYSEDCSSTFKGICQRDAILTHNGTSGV
Put plainly: flow, Jurkat, 100 nM Ab.

In experiment [4] the target is T4, Human Clec4E (human, UniProt Q9ULY5 1-219).
T4 construct: also called hClec4E
T4 sequence: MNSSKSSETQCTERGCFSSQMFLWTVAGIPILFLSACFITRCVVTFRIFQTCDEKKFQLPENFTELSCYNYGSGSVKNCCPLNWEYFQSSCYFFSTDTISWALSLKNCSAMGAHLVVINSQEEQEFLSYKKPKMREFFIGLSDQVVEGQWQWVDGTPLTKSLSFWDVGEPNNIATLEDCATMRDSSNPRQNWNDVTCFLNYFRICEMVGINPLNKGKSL
Put plainly: flow, Jurkat.

Experiment [5] deals with T5, Human Clec7A (human, UniProt Q9BXN2 1-247).
T5 construct: also called hClec7A
T5 sequence: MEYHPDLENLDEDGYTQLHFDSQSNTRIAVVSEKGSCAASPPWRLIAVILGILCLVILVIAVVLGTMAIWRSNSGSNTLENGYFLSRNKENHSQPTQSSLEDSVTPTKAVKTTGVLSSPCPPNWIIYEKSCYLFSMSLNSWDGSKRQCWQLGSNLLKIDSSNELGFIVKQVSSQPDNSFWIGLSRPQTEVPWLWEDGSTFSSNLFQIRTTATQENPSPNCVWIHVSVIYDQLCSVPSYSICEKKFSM
The experiment in a line: flow, Jurkat.

Experiment [6] concerns the target T1, Human CD94. The experiment in a line: flow, Jurkat.
For experiment [7], the target named is T6, Human CD209 (human, UniProt Q9NNX6 1-404).
T6 construct: also called hCD209
T6 sequence: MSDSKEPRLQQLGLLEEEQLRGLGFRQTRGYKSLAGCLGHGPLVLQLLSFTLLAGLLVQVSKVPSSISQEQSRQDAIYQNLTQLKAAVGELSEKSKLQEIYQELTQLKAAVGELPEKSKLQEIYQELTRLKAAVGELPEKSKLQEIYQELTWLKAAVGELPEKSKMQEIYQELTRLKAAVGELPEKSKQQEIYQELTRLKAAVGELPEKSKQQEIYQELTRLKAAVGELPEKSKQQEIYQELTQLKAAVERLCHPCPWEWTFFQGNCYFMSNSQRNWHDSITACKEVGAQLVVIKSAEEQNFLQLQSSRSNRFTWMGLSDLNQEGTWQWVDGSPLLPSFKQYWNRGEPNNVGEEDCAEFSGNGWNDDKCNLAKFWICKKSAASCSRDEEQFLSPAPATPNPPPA
Put plainly: flow, Jurkat.

Experiment [8] addresses T7, Human Clec9A (human, UniProt Q6UXN8 1-241).
T7 construct: also called hClec9A
Put plainly: flow, Jurkat.

The target in experiment [9] is T8, Human KLRF1 (human, UniProt Q9NZS2 1-231).
T8 construct: also called hKLRF1
T8 sequence: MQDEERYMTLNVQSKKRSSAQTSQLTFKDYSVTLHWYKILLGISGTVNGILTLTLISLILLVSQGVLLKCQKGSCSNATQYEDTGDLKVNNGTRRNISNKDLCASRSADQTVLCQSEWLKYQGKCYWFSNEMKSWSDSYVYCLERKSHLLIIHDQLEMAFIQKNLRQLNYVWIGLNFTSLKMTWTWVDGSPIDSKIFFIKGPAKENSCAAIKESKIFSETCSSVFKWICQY
The experiment in a line: flow, Jurkat.

Experiment [10] concerns the target T9, Human Clec5A (human, UniProt Q9NY25 1-188).
T9 construct: also called hClec5A
T9 sequence: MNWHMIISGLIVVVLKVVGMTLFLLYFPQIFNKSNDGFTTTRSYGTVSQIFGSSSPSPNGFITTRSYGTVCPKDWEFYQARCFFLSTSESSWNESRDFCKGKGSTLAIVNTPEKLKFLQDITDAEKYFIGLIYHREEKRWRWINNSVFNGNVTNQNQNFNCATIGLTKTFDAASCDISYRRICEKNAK
Put plainly: flow, Jurkat.

Experiment [11] has as its target T2, Human KLRG1. Put plainly: flow, Jurkat.
In experiment [12] the target is T10, Human Clec10A (human, UniProt Q8IUN9 1-316).
T10 construct: also called hClec10A
T10 sequence: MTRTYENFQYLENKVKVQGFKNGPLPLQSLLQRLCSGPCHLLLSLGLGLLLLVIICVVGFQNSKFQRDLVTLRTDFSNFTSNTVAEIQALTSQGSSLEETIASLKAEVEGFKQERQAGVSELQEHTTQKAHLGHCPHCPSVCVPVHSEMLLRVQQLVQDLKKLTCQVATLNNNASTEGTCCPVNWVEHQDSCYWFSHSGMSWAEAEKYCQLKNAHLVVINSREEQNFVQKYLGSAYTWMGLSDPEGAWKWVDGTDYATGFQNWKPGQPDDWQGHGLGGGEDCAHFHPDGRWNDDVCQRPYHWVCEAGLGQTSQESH
The experiment in a line: flow, Jurkat.

T7 sequence (Q6UXN8 whole entry): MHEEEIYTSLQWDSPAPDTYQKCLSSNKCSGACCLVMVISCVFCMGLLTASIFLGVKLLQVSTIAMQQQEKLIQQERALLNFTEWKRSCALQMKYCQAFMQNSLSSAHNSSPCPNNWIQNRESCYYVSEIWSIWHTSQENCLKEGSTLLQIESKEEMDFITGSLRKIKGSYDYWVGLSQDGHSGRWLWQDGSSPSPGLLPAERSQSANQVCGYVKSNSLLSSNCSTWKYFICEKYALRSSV

B1: KM12.4.7 (antibody, V domains shown)
VH: EVQLVESGGGLVQPGGSLRLPCAASGFTFSSYAMSWIRQAPGKGLEWVSAISGSGGSIYYADSVKGRFTISRDNSKNTLYLQMDSLRAEDTAVYYCARGYSDSYFYGPYYTFDYWGQGTLVTVSS
VL: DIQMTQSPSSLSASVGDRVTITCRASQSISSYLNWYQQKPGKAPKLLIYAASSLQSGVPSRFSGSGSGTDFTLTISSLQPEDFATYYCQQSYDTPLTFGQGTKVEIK
Consider B1, for which the “MFI normalized to WT” value in experiment [1] is 1.2; in experiment [2] it was 1.25; in [3], 1.13. The binding result in experiment [4], in experiment [5], in experiment [6], in [7], in experiment [8] and in experiment [9] was “no binding (tested: 100 nM)” throughout. Also, the binding result in experiment [10], in [11] and in [12] was “no binding (tested: 100 nM)” in each case.

B2: KW9.3.3 (antibody, V domains shown)
VH: EVQLVESGGGLVQPGGSLRLSCAASGFTFSSYAMSWVRQAPGKGLEWVSAISGSGGRTYYADSVKGRFTISRDNSKNTLYLQMNSLRAEDTAMYYCARGPGYMYLYGDSFFEYWGQGTLVTVSS
VL: DIQMAQSPSSLSASVGDRVTITCRASQGISSYLNWYQQKPGKAPKLLIYAASSLQSGVPSRFSGSGYGTDFTLTISSLQPEDFATYYCQQSYSTPLTFGQGTKVEIK
With B2, the “MFI normalized to WT” value in experiment [1] came out at 0.84; in experiment [2], 0.93; in experiment [3], 0.9. Also, the binding result in [4], in experiment [5], in [6], in experiment [7], in experiment [8] and in experiment [9] was “no binding (tested: 100 nM)” each time. For the same molecule, the binding result in experiment [10], in [11] and in experiment [12] was “no binding (tested: 100 nM)” each time.

B3: KW17.3.4 (antibody, V domains shown)
VH: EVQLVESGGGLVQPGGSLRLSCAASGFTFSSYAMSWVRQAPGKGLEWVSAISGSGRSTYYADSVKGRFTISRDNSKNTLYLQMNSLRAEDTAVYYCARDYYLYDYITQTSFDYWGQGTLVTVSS
VL: QSVLTQPPSVSGAPGQRVTISCTGSSSNIGAGYDVHWYQQLPGTAPKLLIYGNSNRPSGVPDRFSGSQSGTSASLAITGLQAEDEADYYCQSYNSGHTVFGGGTQLTVL
Turning to B3, the “MFI normalized to WT” value in experiment [1] was 0.97; in experiment [2], 1.08; in experiment [3] it was 1.03. Besides, the binding result in experiment [4], in [5], in experiment [6], in [7], in [8] and in experiment [9] was “no binding (tested: 100 nM)” in each case. For the same molecule, the binding result in [10], in experiment [11] and in [12] was “no binding (tested: 100 nM)” throughout.
